In the RNAGym collection of RNA variant scans (doi:10.7554/elife.80360) one finds self-cleavage data, which are given here for 167 variants.

B1: Twister Ribozyme (parent)
chain: AACACUGCCAAUGCCGGUCCCAAGCCCGGAUAAAAGUGGAGGGGGCGG

Variants of B1 are the subject of this series. Put plainly: self-cleavage, relative activity (ratio to wild type); higher = more cleavage; co-transcriptional.
Turning to C15G U18G, the self-cleavage worked out at 0.0953.
As for C25G G36A, the self-cleavage was determined as 0.103.
Then A1G G28C, with 0.466.
G44U G45A: the self-cleavage was found to be 0.825.
Regarding U18C C27U, the self-cleavage was 0.182.
Consider G47C G48A, for which the self-cleavage turned out to be 0.666.
C15G U31C: the self-cleavage is 0.108.
Then C5A G17A, with 0.0903.
Then G38C G39C, with 0.127; and C21G G47C, with 0.0639.
In the case of U31G G45A, the self-cleavage came to 0.99.
For the variant A40U G45C, the self-cleavage came out at 0.129.
Then A22G A30C, with 0.111.
Take U6C G43A: the self-cleavage came out at 0.0844.
Then G7A G24U, with 0.0739; and G13C U31C, with 0.552; and A30C G39A, with 0.189.
As for C27A G43U, the self-cleavage stood at 0.122.
With C25A U31C, the self-cleavage was determined as 0.138.
A11C G41C: the self-cleavage turned out to be 0.255.
As for C5U G43A, the self-cleavage came to 0.141.
Turning to C3U U18C, the self-cleavage was found to be 0.215.
As for A4U G36U, the self-cleavage was found to be 0.0439.
For U31A G48A the value was 0.717; for G16C G28U, 0.383; for U18C C20U, 0.375.
Regarding U18A U31A, the self-cleavage turned out to be 0.584.
For C8U C21A, the self-cleavage amounted to 0.0385.
With A4C G38C, the self-cleavage came to 0.61.
Consider C21U G24C, for which the self-cleavage came out at 0.0925.
C19U A22G: the self-cleavage stood at 0.0788.
With U6C G47A, the self-cleavage is 0.579.
For A23U A34C, the self-cleavage turned out to be 0.0966.
For A23U G41C the value was 0.0988; for G42C G43U, 0.137; for A4U C9U, 0.0756.
As to A11C A33U, the self-cleavage turned out to be 0.853.
For A22C U37C, the self-cleavage was 0.624.
Then A30C G42A, with 0.129.
With G28C G39A, the self-cleavage turned out to be 0.445.
For G24C G44C the value was 0.0955.
For U12G G17U, the self-cleavage came out at 0.239.
Then C20A A35G, with 0.0546; and A34C G48C, with 0.2.
Then C19U A33C, with 0.795.
Then A2C G44A, with 0.107; and A22G A40U, with 0.138.
For C3G C20G, the self-cleavage is 0.0675.
With U12G A30G, the self-cleavage amounted to 0.783.
Regarding U18C G28C, the self-cleavage amounted to 0.124.
For the variant U37G G48A, the self-cleavage came out at 0.844.
For C15A G47U, the self-cleavage was found to be 0.332.
Then C14U A32G, with 1.07; and C5U A22U, with 0.526.
Consider U18C, for which the self-cleavage is 0.664.
Take U12A C25A: the self-cleavage amounted to 0.15.
A32U G39A: the self-cleavage turned out to be 0.596.
For C8A A10G the value was 0.734.
For the variant A34U G41C, the self-cleavage was 0.176.
With U31C G47U, the self-cleavage came out at 1.02.
In the case of A1G G41C, the self-cleavage was 0.186.
As for G28U G29U, the self-cleavage amounted to 0.972.
Consider G28A G42A, for which the self-cleavage turned out to be 0.263.
For A4G G39C the value was 0.115; for A11G G17A, 0.372.
For the variant C19U U37A, the self-cleavage came to 0.406.
On to A32U G36A, for which the self-cleavage came to 0.701.
C8A G36C: the self-cleavage stood at 0.145.
Turning to A2U C8A, the self-cleavage was determined as 0.078.
For G7A C14G the value was 0.0811; for A30U G36C, 0.559.
For C3U C19G the value was 0.106; for C15U C46A, 0.944.
Regarding A4U U6G, the self-cleavage amounted to 0.0301.
Regarding C19A G41A, the self-cleavage is 0.0916.
For the variant A10U U18A, the self-cleavage came out at 0.546.
Regarding A2G G42C, the self-cleavage amounted to 0.157.
G7A G47U: the self-cleavage turned out to be 0.19.
For the variant C3A C21G, the self-cleavage stood at 0.0514.
For the variant U12A G17U, the self-cleavage turned out to be 0.41.
As to G16C A32G, the self-cleavage was determined as 0.518.
Then U12G G28A, with 0.799; and C8A C19U, with 0.107; and A30C A34G, with 0.326.
On to A2U A22U, for which the self-cleavage was 0.11.
Take U12A A22G: the self-cleavage amounted to 0.396.
For A4U G41A the value was 0.0938; for G16A C20G, 0.158.
On to A11G A33U, for which the self-cleavage stood at 0.955.
For the variant U6A C27U, the self-cleavage is 0.682.
For the variant A33C G36A, the self-cleavage turned out to be 0.175.
On to C15U G24A, for which the self-cleavage was determined as 0.1.
On to C5U C21A, for which the self-cleavage is 0.126.
As for G38A G43U, the self-cleavage was 0.195.
In the case of C3G A30G, the self-cleavage was found to be 0.239.
Then A2C G47U, with 0.0503; and C19A A32G, with 0.177.
On to G24A G28A, for which the self-cleavage worked out at 0.0708.
As to G28U G36U, the self-cleavage came out at 0.136.
For G7C U12C the value was 0.0838; for A10G A22G, 0.268.
Take G7U G44U: the self-cleavage came out at 0.0819.
Then C9U G38A, with 0.177; and G7U G38U, with 0.103; and G13C A30C, with 0.518.
A2G A30G: the self-cleavage was determined as 0.399.
For G28C G38U the value was 0.64; for A34U A35C, 0.892; for C21A A40G, 0.0639.
On to C25A A30C, for which the self-cleavage was 0.0625.
As to A23C A34G, the self-cleavage was 0.135.
In the case of A10G C46G, the self-cleavage is 0.971.
Consider C8G G38U, for which the self-cleavage came to 0.158.
Then A30U A33U, with 0.873.
On to A11G C25U, for which the self-cleavage was determined as 0.737.
On to G43U G47U, for which the self-cleavage is 0.137.
As for A35G A40G, the self-cleavage stood at 0.118.
With G13U C19A, the self-cleavage was found to be 0.0828.
In the case of G44A G48A, the self-cleavage stood at 0.927.
Regarding G7U C21G, the self-cleavage worked out at 0.0215.
C26U A34U: the self-cleavage worked out at 0.124.
U12A A40G: the self-cleavage was determined as 0.136.
Take A1C G47U: the self-cleavage was found to be 0.228.
A32U G43A: the self-cleavage was 0.239.
Then A1G A34C, with 0.186; and G41A G42U, with 0.156; and C27G A34C, with 0.0686.
Turning to A22U A30G, the self-cleavage was 0.783.
As to C8G A34G, the self-cleavage was determined as 0.276.
For A1U C5U the value was 0.076; for G16U G45U, 0.819; for G29C A35U, 0.885.
As to C5G G24C, the self-cleavage was found to be 0.118.
For U18C A34G, the self-cleavage was 0.142.
In the case of G36A G45A, the self-cleavage is 0.714.
For the variant U18G A23C, the self-cleavage turned out to be 0.0482.
With C20G A40C, the self-cleavage was 0.109.
Take U18A G29A: the self-cleavage amounted to 0.41.
Turning to C21A G24U, the self-cleavage is 0.0879.
Turning to G17A A33G, the self-cleavage amounted to 0.451.
With U37A G47C, the self-cleavage stood at 0.292.
With A34G G48U, the self-cleavage was found to be 0.876.
C14U G48A: the self-cleavage was determined as 1.1.
Take G39A G47U: the self-cleavage was found to be 0.238.
C3A C14A: the self-cleavage came out at 0.15.
Take C15G C19A: the self-cleavage was determined as 0.0812.
Regarding A4U C5U, the self-cleavage worked out at 0.136.
Then U6G G43U, with 0.184; and C3G C15G, with 0.133.
For G16U G38U, the self-cleavage stood at 0.914.
In the case of C15A G48C, the self-cleavage was 0.715.
For the variant A23G G36C, the self-cleavage came out at 0.0979.
For the variant A33U G48A, the self-cleavage turned out to be 0.889.
For A22G G45A, the self-cleavage is 0.277.
In the case of U31G A35C, the self-cleavage was determined as 1.06.
Consider G29A G39A, for which the self-cleavage was 0.381.
A22U G48A: the self-cleavage worked out at 0.666.
With A32G G45C, the self-cleavage turned out to be 0.559.
In the case of A1U G41A, the self-cleavage is 0.0475.
For C19U A35C, the self-cleavage was 1.05.
Then C9U A35G, with 0.615.
On to C14U A30C, for which the self-cleavage stood at 1.08.
Regarding G16C U37C, the self-cleavage is 0.0928.
Turning to G24A A40C, the self-cleavage worked out at 0.105.
With A10U C15A, the self-cleavage worked out at 0.619.
As to A10C G43A, the self-cleavage stood at 0.337.
As for C5A U6G, the self-cleavage amounted to 0.154.
